Data published in article PMC6553639 (Science signaling, 2018).
No end group written: not given here. *: point of attachment. FITC = O=C1OC2(c3ccc(O)cc3Oc3cc(O)ccc32)c2ccc(NC(=S)*)cc21

T1: GST-TRIB1(84–372) S240W (human, UniProt Q96RU8 84-372, S240W)
T1 sequence (looked up): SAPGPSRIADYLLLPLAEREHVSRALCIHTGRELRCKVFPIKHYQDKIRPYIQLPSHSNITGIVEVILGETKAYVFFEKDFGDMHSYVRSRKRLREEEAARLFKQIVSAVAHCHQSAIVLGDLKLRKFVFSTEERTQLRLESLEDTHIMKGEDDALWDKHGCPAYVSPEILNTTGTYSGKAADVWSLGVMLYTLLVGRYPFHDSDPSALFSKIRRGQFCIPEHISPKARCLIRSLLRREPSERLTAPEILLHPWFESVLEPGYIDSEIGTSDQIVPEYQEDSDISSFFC

T2: GST-TRIB1(84–372) wild type (human, UniProt Q96RU8 84-372)
T2 sequence (looked up): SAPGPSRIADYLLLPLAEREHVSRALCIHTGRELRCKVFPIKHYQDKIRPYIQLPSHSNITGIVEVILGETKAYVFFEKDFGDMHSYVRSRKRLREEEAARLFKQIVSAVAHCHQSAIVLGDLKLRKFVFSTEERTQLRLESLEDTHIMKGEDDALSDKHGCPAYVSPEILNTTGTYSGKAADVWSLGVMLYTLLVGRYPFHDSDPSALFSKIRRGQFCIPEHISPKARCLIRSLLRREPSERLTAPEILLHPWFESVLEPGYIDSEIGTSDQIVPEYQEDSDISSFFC

T3: TRIB1(84–372) (human, UniProt Q96RU8 84-372)
T3 sequence (looked up): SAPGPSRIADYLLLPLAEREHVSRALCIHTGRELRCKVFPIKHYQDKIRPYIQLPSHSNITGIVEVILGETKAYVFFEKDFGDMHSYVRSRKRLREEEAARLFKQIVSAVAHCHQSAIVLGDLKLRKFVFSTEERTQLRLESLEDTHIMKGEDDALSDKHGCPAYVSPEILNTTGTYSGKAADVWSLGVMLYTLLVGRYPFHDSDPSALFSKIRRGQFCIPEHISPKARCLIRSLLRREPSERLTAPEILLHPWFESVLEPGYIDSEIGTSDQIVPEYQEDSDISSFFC


Legend:
[1] = biological target: T1, GST-TRIB1(84–372) S240W; assay: pull-down
[2] = biological target: T2, GST-TRIB1(84–372) wild type; assay: pull-down
[3] = biological target: T3, TRIB1(84–372); assay: ITC
[4] = biological target: T3, TRIB1(84–372); assay: differential scanning fluorimetry
[5] = biological target: COP1 WD40 domain (376–731) (UniProt Q8NHY2 376-731); assay: fluorescence polarisation
Chain of COP1 WD40 domain (376–731) (Q8NHY2 376-731): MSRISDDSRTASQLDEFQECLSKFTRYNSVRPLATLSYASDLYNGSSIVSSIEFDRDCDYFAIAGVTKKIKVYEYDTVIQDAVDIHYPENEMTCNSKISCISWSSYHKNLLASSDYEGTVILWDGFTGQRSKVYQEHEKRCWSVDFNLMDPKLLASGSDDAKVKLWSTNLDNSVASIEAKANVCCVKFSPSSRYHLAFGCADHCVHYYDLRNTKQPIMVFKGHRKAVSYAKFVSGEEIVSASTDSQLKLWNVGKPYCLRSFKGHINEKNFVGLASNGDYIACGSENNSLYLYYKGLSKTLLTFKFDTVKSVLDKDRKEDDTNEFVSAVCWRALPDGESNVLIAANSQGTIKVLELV

Row | Binder | binding result [3] | binding result [5] | other results
1 | GGICEHETSIDISAYIDPAAFND (peptide, UniProt P49715 53-75, looked up) [His6MBP-C/EBPα(53–75)] | binds | – | binding result [1]: binds; binding result [2]: binds
2 | GGICEHETSIDISAYIDPAAFND (peptide, UniProt P49715 53-75, looked up) [C/EBPα degron peptide (53 to 75)] | – | – | binding result [4]: binds
3 | {FITC}-SEIGTSDQIVPEYQEDSDI (peptide, UniProt Q96RU8 349-367, looked up) [FITC-TRIB1(349–367)] | – | binds | –
4 | PAMYDDESAIDFSAYIDSMAAVP (peptide, UniProt P49716 50-72, looked up) [C/EBPδ(50–72) fused to MBP] | binds | – | –
5 | SEIGTSDQIVPEYQEDSDI (peptide, UniProt Q96RU8 349-367, looked up) [TRIB1 peptide (residues 349 to 367)] | – | binds | –
6 | GDMCEHEASIDLSAYIESGEEQL (peptide, UniProt Q15744 31-53, looked up) [C/EBPε(31–53) fused to MBP] | binds | – | –
